Total cross-links between the JD and HspA1A across three XL–MS experiments data for one substance are collected here from publication PMC7878476.

The assay addresses DnaJB8ΔCTD (human). The assay can be described thus: cross-linking; HspA1A in 1× PBS pH 7.4 mixed with 40 μM DnaJB8, JD_(1–82), DnaJB8ΔCTD or DnaJB8F→S; 37 °C, ADH/DMTMM; XL–MS in triplicate.

Chain of human Hsp70 (HspA1A) (P0DMV8 whole entry): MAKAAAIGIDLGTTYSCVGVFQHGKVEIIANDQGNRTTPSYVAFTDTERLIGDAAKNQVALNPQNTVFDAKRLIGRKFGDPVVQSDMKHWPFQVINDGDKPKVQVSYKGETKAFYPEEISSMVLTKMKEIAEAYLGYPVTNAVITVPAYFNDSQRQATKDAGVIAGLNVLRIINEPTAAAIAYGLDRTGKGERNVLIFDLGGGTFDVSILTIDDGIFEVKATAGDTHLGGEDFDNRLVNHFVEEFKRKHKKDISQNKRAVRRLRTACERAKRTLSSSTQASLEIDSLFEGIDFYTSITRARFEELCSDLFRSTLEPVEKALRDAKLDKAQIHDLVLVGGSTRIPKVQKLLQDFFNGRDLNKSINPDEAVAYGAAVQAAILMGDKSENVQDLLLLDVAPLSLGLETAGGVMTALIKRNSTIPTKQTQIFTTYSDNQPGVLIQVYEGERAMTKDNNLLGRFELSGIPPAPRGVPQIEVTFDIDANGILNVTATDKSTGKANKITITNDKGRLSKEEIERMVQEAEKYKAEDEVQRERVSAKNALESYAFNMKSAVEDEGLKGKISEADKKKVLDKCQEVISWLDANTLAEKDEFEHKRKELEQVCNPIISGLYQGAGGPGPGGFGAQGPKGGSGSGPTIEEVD

“human Hsp70 (HspA1A) (from UniProt P0DMV8 1-641) (natural protein)” gave a total cross-links between the JD and HspA1A across three XL–MS experiments of 14 cross-links.
